From the supplement of paper PMC11316812
± gives the standard deviation of the averaged measurements.

Assays:
[1] = test system: MCF7; test: percentage of EdU-negative (G0-arrested) nuclei per well, 72 h; higher = more G0 arrest; details: reference: sequence is the full UniProt precursor, the tested protein was the secreted form or ectodomain
[2] = test system: hTERT-HMEC; test: as above; details: reference: sequence is the full UniProt precursor, the tested protein was the secreted form or ectodomain
[3] = protein concentration 0.0135 µM
[4] = protein concentration 0.0225 µM
[5] = protein concentration 0.0301575 µM
[6] = protein concentration 0.301575 µM
[7] = protein concentration 0.03125 µM
[8] = protein concentration 0.3125 µM
[9] = protein concentration 0.0115 µM
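Note: secreted proteins added to cultured cells, EdU pulse at the end, nuclei found by Hoechst imaging, EdU status from nuclear versus surrounding ring intensity ratio, PBS as neutral control.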

Sequence	percentage of EdU-negative [1, 4]	percentage of EdU-negative ([1]; protein concentration 0.225 µM)	percentage of EdU-negative [2, 4]	percentage of EdU-negative ([2]; protein concentration 0.225 µM)	other results
MWLLVSVILISRISSVGGEATFCDFPKINHGILYDEEKYKPFSQVPTGEVFYYSCEYNFVSPSKSFWTRITCTEEGWSPTPKCLRLCFFPFVENGHSESSGQTHLEGDTVQIICNTGYRLQNNENNISCVERGWSTPPKCRSTDTSCVNPPTVQNAHILSRQMSKYPSGERVRYECRSPYEMFGDEEVMCLNGNWTEPPQCKDSTGKCGPPPPIDNGDITSFPLSVYAPASSVEYQCQNLYQLEGNKRITCRNGQWSEPPKCLHPCVISREIMENYNIALRWTAKQKLYLRTGESAEFVCKRGYRLSSRSHTLRTTCWDGKLEYPTCAKR					percentage of EdU-negative [1, 3]: 25.1 ± 1.9%; percentage of EdU-negative ([1]; protein concentration 0.135 µM): 25.3 ± 0.89%; percentage of EdU-negative [2, 3]: 5.26 ± 0.45%; percentage of EdU-negative ([2]; protein concentration 0.135 µM): 5.53 ± 0.48%
MIAFLLTSVLMIPHAGGHPLDTPHLPQELPPGLPNNINITFFSGMFKNVESVAEIFDCLGPHFTWLQAVFTNFPVLIQFVNGMKCVAGLCPRDFEDYGCTCRFEMEGLPVDESDSCCFQHRRCYEEAAEMDCLQDPAKLSTEVNCVSKKIICESKDNCEHLLCTCDKAAIECLARSSLNSSLNLLDTSFCLAQTPETTIKEDLTTLLPRVVPVEPTDTSLTALSGEEAGHDQEGVGAARATSPPGSAEIVATRVTAKIVTLVPAGIKSLGLAVSSVENDPEETTEKACDRFTFLHLGSGDNMQVMPQLGEMLFCLTSRCPEEFESYGCYCGQEGRGEPRDDLDRCCLSHHCCLEQVRRLGCLLERLPWSPVVCVDHTPKCGGQSLCEKLLCACDQTAAECMTSASFNQSLKSPSRLGCPGQPAACEDSLHPVPAAPTLGSSSEEDSEEDPPQEDLGRAKRFLRKSLGPLGIGPLHGR	26.2 ± 2.5%	25.7 ± 0.78%	5.21 ± 0.36%	5.66 ± 0.11%	
MWSLLLCGLSIALPLSVTADGCKDIFMKNEILSASQPFAFNCTFPPITSGEVSVTWYKNSSKIPVSKIIQSRIHQDETWILFLPMEWGDSGVYQCVIKGRDSCHRIHVNLTVFEKHWCDTSIGGLPNLSDEYKQILHLGKDDSLTCHLHFPKSCVLGPIKWYKDCNEIKGERFTVLETRLLVSNVSAEDRGNYACQAILTHSGKQYEVLNGITVSITERAGYGGSVPKIIYPKNHSIEVQLGTTLIVDCNVTDTKDNTNLRCWRVNNTLVDDYYDESKRIREGVETHVSFREHNLYTVNITFLEVKMEDYGLPFMCHAGVSTAYIILQLPAPDFRAYLIGGLIALVAVAVSVVYIYNIFKIDIVLWYRSAFHSTETIVDGKLYDAYVLYPKPHKESQRHAVDALVLNILPEVLERQCGYKLFIFGRDEFPGQAVANVIDENVKLCRRLIVIVVPESLGFGLLKNLSEEQIAVYSALIQDGMKVILIELEKIEDYTVMPESIQYIKQKHGAIRWHGDFTEQSQCMKTKFWKTVRYHMPPRRCRPFPPVQLLQHTPCYRTAGPELGSRRKKCTLTTG [Q9HB29]	24.7 ± 2.6%	24 ± 0.89%	5.48 ± 0.32%	6.16 ± 0.14%	
MAHRPPSPALASVLLALLLSGAARAAEIVGGHEAQPHSRPYMASLQMRGNPGSHFCGGTLIHPSFVLTAAHCLRDIPQRLVNVVLGAHNVRTQEPTQQHFSVAQVFLNNYDAENKLNDVLLIQLSSPANLSASVATVQLPQQDQPVPHGTQCLAMGWGRVGAHDPPAQVLQELNVTVVTFFCRPHNICTFVPRRKAGICFGDSGGPLICDGIIQGIDSFVIWGCATRLFPDFFTRVALYVDWIRSTLRRVEAKGRP	25.4 ± 0.57%	28.984 ± 0.026%	4.55 ± 0.18%	4.49 ± 0.19%	
MSRREGSLEDPQTDSSVSLLPHLEAKIRQTHSLAHLLTKYAEQLLQEYVQLQGDPFGLPSFSPPRLPVAGLSAPAPSHAGLPVHERLRLDAAALAALPPLLDAVCRRQAELNPRAPRLLRRLEDAARQARALGAAVEALLAALGAANRGPRAEPPAATASAASATGVFPAKVLGLRVCGLYREWLSRTEGDLGQLLPGGSA	25.7 ± 2.9%	26.5 ± 1.6%	4.52 ± 0.57%	6.17 ± 0.093%	
MLIFWTITLFLLGAAKGKEVCYEDLGCFSDTEPWGGTAIRPLKILPWSPEKIGTRFLLYTNENPNNFQILLLSDPSTIEASNFQMDRKTRFIIHGFIDKGDESWVTDMCKKLFEVEEVNCICVDWKKGSQATYTQAANNVRVVGAQVAQMLDILLTEYSYPPSKVHLIGHSLGAHVAGEAGSKTPGLSRITGLDPVEASFESTPEEVRLDPSDADFVDVIHTDAAPLIPFLGFGTNQQMGHLDFFPNGGESMPGCKKNALSQIVDLDGIWAGTRDFVACNHLRSYKYYLESILNPDGFAAYPCTSYKSFESDKCFPCPDQGCPQMGHYADKFAGRTSEEQQKFFLNTGEASNFARWRYGVSITLSGRTATGQIKVALFGNKGNTHQYSIFRGILKPGSTHSYEFDAKLDVGTIEKVKFLWNNNVINPTLPKVGATKITVQKGEEKTVYNFCSEDTVREDTLLTLTPC					percentage of EdU-negative [1, 5]: 25.8 ± 0.77%; percentage of EdU-negative [1, 6]: 26.6 ± 1.5%; percentage of EdU-negative [2, 5]: 5.42 ± 0.23%; percentage of EdU-negative [2, 6]: 5.14 ± 0.29%
MAPISLSWLLRLATFCHLTVLLAGQHHGVTKCNITCSKMTSKIPVALLIHYQQNQASCGKRAIILETRQHRLFCADPKEQWVKDAMQHLDRQAAALTRNGGTFEKQIGEVKPRTTPAAGGMDESVVLEPEATGESSSLEPTPSSQEAQRALGTSPELPTGVTGSSGTRLPPTPKAQDGGPVGTELFRVPPVSTAATWQSSAPHQPGPSLWAEAKTSEAPSTQDPSTQASTASSPAPEENAPSEGQRVWGQGQSPRPENSLEREEMGPVPAHTDAFQDWGPGSMAHVSVVPVSSEGTPSREPVASGSWTPKAEEPIHATMDPQRLGVLITPVPDAQAATRRQAVGLLAFLGLLFCLGVAMFTYQSLQGCPRKMAGEMAEGLRYIPRSCGSNSYVLVPV	24.7 ± 2.4%	25.18 ± 0.043%	4.91 ± 0.028%	5.92 ± 0.33%	
MLAPGSSPGQRGRLALQWRQVSWITCWIALYAVEALPTCPFSCKCDSRSLEVDCSGLGLTTVPPDVPAATRTLLLLNNKLSALPSWAFANLSSLQRLDLSNNFLDRLPRSIFGDLTNLTELQLRNNSIRTLDRDLLRHSPLLRHLDLSINGLAQLPPGLFDGLLALRSLSLRSNRLQNLDRLTFEPLANLQLLQVGDNPWECDCNLREFKHWMEWFSYRGGRLDQLACTLPKELRGKDMRMVPMEMFNYCSQLEDENSSAGLDIPGPPCTKASPEPAKPKPGAEPEPEPSTACPQKQRHRPASVRRAMGTVIIAGVVCGVVCIMMVVAAAYGCIYASLMAKYHRELKKRQPLMGDPEGEHEDQKQISSVA [Q8N967]					percentage of EdU-negative [1, 7]: 25.5 ± 0.63%; percentage of EdU-negative [1, 8]: 25.5 ± 2.5%; percentage of EdU-negative [2, 7]: 5.33 ± 1%; percentage of EdU-negative [2, 8]: 5.93 ± 0.73%
MQQPFNYPYPQIYWVDSSASSPWAPPGTVLPCPTSVPRRPGQRRPPPPPPPPPLPPPPPPPPLPPLPLPPLKKRGNHSTGLCLLVMFFMVLVALVGLGLGMFQLFHLQKELAELRESTSQMHTASSLEKQIGHPSPPPEKKELRKVAHLTGKSNSRSMPLEWEDTYGIVLLSGVKYKKGGLVINETGLYFVYSKVYFRGQSCNNLPLSHKVYMRNSKYPQDLVMMEGKMMSYCTTGQMWARSSYLGAVFNLTSADHLYVNVSELSLVNFEESQTFFGLYKL	25.2 ± 0.97%	29 ± 2.4%	4.44 ± 0.26%	7.46 ± 2.2%	
MGSGPRGALSLLLLLLAPPSRPAAGCPAPCSCAGTLVDCGRRGLTWASLPTAFPVDTTELVLTGNNLTALPPGLLDALPALRTAHLGANPWRCDCRLVPLRAWLAGRPERAPYRDLRCVAPPALRGRLLPYLAEDELRAACAPGPLCWGALAAQLALLGLGLLHALLLVLLLCRLRRLRARARARAAARLSLTDPLVAERAGTDES	23.5 ± 3%	27.189 ± 0.018%	5.41 ± 0.22%	6.21 ± 0.79%	
MLLLFLLFEGLCCPGENTAAPQALQSYHLAAEEQLSFRMLQTSSFANHSWAHSEGSGWLGDLQTHGWDTVLGTIRFLKPWSHGNFSKQELKNLQSLFQLYFHSFIQIVQASAGQFQLEYPFEIQILAGCRMNAPQIFLNMAYQGSDFLSFQGISWEPSPGAGIRAQNICKVLNRYLDIKEILQSLLGHTCPRFLAGLMEAGESELKRKVKPEAWLSCGPSPGPGRLQLVCHVSGFYPKPVWVMWMRGEQEQRGTQRGDVLPNADETWYLRATLDVAAGEAAGLSCRVKHSSLGGHDLIIHWGGYSIFLILICLTVIVTLVILVVVDSRLKKQSSNKNILSPHTPSPVFLMGANTQDTKNSRHQFCLAQVSWIKNRVLKKWKTRLNQLW					percentage of EdU-negative [1, 9]: 28.7 ± 2.1%; percentage of EdU-negative ([1]; protein concentration 0.115 µM): 26 ± 1.3%; percentage of EdU-negative [2, 9]: 4.889 ± 0.0055%; percentage of EdU-negative ([2]; protein concentration 0.115 µM): 8.22 ± 0.88%
MAPAGCCCCCCFWGGAVAAAGAARRVLLLLLLGVLSAGLRPGALATEHYSPLSLLKQELQHRQQQEAPAGGGGCSPQSGDWGDQYSAECGESSFLNFHDSDCEPKGSSPCDSLLSLNTEKILSQAKSIAEQKRFPFATDNDSTNEELAIAYVLIGSGLYDEAIRHFSTMLQEEPDLVSAIYGRGIAYGKKGLHDIKNAELALFELSRVITLEPDRPEVFEQRAEILSPLGRINEAVNDLTKAIQLQPSARLYRHRGTLYFISEDYATAHEDFQQSLELNKNQPIAMLYKGLTFFHRGLLKEAIESFKEALKQKVDFIDAYKSLGQAYRELGNFEAATESFQKALLLNQNHVQTLQLRGMMLYHHGSLQEALKNFKRCLQLEPYNEVCQYMKGLSHVAMGQFYEGIKAQTKVMLNDPLPGQKASPEYLKVKYLREYSRYLHAHLDTPLTEYNIDVDLPGSFKDHWAKNLPFLIEDYEEQPGLQPHIKDVLHQNFESYKPEVQELICVADRLGSLMQYETPGFLPNKRIHRAMGLAALEVMQAVQRTWTNSKVRMNGKTRLMQWRDMFDIAVKWRRIADPDQPVLWLDQMPARSLSRGFNNHINLIRGQVINMRYLEYFEKILHFIKDRILVYHGANNPKGLLEVREALEKVHKVEDLLPIMKQFNTKTKDGFTVNTKVPSLKDQGKEYDGFTITITGDKVGNILFSVETQTTEERTQLYHAEIDALYKDLTAKGKVLILSSEFGEADAVCNLILSLVYYFYNLMPLSRGSSVIAYSVIVGALMASGKEVAGKIPKGKLVDFEAMTAPGSEAFSKVAKSWMNLKSISPSYKTLPSVSETFPTLRSMIEVLNTDSSPRCLKKL [Q8NBP0]					percentage of EdU-negative ([1]; protein concentration 0.012 µM): 25.9 ± 1.1%; percentage of EdU-negative ([1]; protein concentration 0.12 µM): 27.7 ± 0.85%; percentage of EdU-negative ([2]; protein concentration 0.012 µM): 5.436 ± 0.048%; percentage of EdU-negative ([2]; protein concentration 0.12 µM): 11 ± 2.8%
MQPTGREGSRALSRRYLRRLLLLLLLLLLRQPVTRAETTPGAPRALSTLGSPSLFTTPGVPSALTTPGLTTPGTPKTLDLRGRAQALMRSFPLVDGHNDLPQVLRQRYKNVLQDVNLRNFSHGQTSLDRLRDGLVGAQFWSASVSCQSQDQTAVRLALEQIDLIHRMCASYSELELVTSAEGLNSSQKLACLIGVEGGHSLDSSLSVLRSFYVLGVRYLTLTFTCSTPWAESSTKFRHHMYTNVSGLTSFGEKVVEELNRLGMMIDLSYASDTLIRRVLEVSQAPVIFSHSAARAVCDNLLNVPDDILQLLKKNGGIVMVTLSMGVLQCNLLANVSTVADHFDHIRAVIGSEFIGIGGNYDGTGRFPQGLEDVSTYPVLIEELLSRSWSEEELQGVLRGNLLRVFRQVEKVREESRAQSPVEAEFPYGQLSTSCHSHLVPQNGHQATHLEVTKQPTNRVPWRSSNASPYLVPGLVAAATIPTFTQWLC [Q9H4B8]	26.5 ± 1.8%	27.6 ± 3%	5.33 ± 1.2%	5.49 ± 1.1%	
MPPRGPASELLLLRLLLLGAATAAPLAPRPSKEELTRCLAEVVTEVLTVGQVQRGPCTALLHKELCGTEPHGCASTEEKGLLLGDFKKQEAGKMRSSQEVRDEEEEEVAERTHKSEVQEQAIRMQGHRQLHQEEDEEEEKEERKRGPMETFEDLWQRHLENGGDLQKRVAEKASDKETAQFQAEEKGVRVLGGDRSLWQGAERGGGERREDLPHHHHHHHQPEAEPRQEKEEASEREEKEVEQLEHLRDELKKVTETLGEQLRREG [I3L3R5]	26.1 ± 0.53%	26.5 ± 0.58%	5.07 ± 1.4%	7.54 ± 0.57%	
